# Values joined by “and” are separate entries in the source; they are usually repeats but may differ in a detail not shown here. Equal values may be shown once.
# B1: Tryptophan synthase alpha chain wild type, P0A877 (protein)
# chain: MERYESLFAQLKERKEGAFVPFVTLGDPGIEQSLKIIDTLIEAGADALELGIPFSDPLADGPTIQNATLRAFAAGVTPAQCFEMLALIRQKHPTIPIGLLMYANLVFNKGIDEFYAQCEKVGVDSVLVADVPVEESAPFRQAALRHNVAPIFICPPNADDDLLRQIASYGRGYTYLLSRAGVTGAENRAALPLNHLVAKLKEYNAAPPLQGFGISAPDQVKAAIDAGAAGAISGSAIVKIIEQHINEPEKMLAALKVFVQPMKAATRS
# Conditions: Escherichia coli (strain K12), pH 7.8, 25 °C, Urea, transition: 4, whole UniProt chain shown
# [1] = SAXS, Potassium phosphate 10 mM
# [2] = SEC, Potassium phosphate 100 mM
protein,measurement,setting,value
B1,denaturant m value,"CD, Potassium phosphate 10 mM",2.2 kcal/mol/M and 1.1 kcal/mol/M and 0.84 kcal/mol/M
same,unfolding free energy,"CD, Potassium phosphate 10 mM",6 kcal/mol and 4.5 kcal/mol and 4.9 kcal/mol
same,denaturant m value,[1],2 kcal/mol/M and 0.9 kcal/mol/M
same,unfolding free energy,[1],5.3 kcal/mol and 3.1 kcal/mol
same,denaturant m value,[2],2 kcal/mol/M and 1.2 kcal/mol/M
same,unfolding free energy,[2],5.7 kcal/mol and 4.9 kcal/mol
